Laboratory results as given in paper PMC3376134, “Regulation of the Escherichia coli HipBA Toxin-Antitoxin System by Proteolysis” (PLoS ONE, 2012).

B1: HipA toxin (wild type HipA protein) (enzyme, E. coli, UniProt P23874 1-440, looked up)
chain: MPKLVTWMNNQRVGELTKLANGAHTFKYAPEWLASRYARPLSLSLPLQRGNITSDAVFNFFDNLLPDSPIVRDRIVKRYHAKSRQPFDLLSEIGRDSVGAVTLIPEDETVTHPIMAWEKLTEARLEEVLTAYKADIPLGMIREENDFRISVAGAQEKTALLRIGNDWCIPKGITPTTHIIKLPIGEIRQPNATLDLSQSVDNEYYCLLLAKELGLNVPDAEIIKAGNVRALAVERFDRRWNAERTVLLRLPQEDMCQTFGLPSSVKYESDGGPGIARIMAFLMGSSEALKDRYDFMKFQVFQWLIGATDGHAKNFSVFIQAGGSYRLTPFYDIISAFPVLGGTGIHISDLKLAMGLNASKGKKTAIDKIYPRHFLATAKVLRFPEVQMHEILSDFARMIPAALDNVKTSLPTDFPENVVTAVESNVLRLHGRLSREYGSK
B3: HipB antitoxin, wild type (natural protein, E. coli, UniProt P23873 1-88, looked up)
chain: MMSFQKIYSPTQLANAMKLVRQQNGWTQSELAKKIGIKQATISNFENNPDNTTLTTFFKILQSLELSMTLCDAKNASPESTEQQNLEW
notes: HipB, antitoxin and repressor of the hipBA operon of Escherichia coli, 88 residues; also called HipB WT; pET15b-HipB; source: E. coli BL21(DE3)pLysS, purified (Ni-NTA)

Assays:
[1] = biological target: B3; test: cell-based or functional assay
HipB72 = biological target: T1, HipB72 (Escherichia coli, UniProt P23873 1-72, del73-88); test: fluorescence polarization; 1 nM DNA; 20 mM Tris-HCl pH 7.5, 100 mM NaCl, 5% glycerol, 10 C, 1 nM labeled DNA; details: protein: recombinant; tags: His6 (Ni-NTA purified); chain copies: 2; label: 5'-6-carboxyfluorescein on top strand; blunt
T1 sequence: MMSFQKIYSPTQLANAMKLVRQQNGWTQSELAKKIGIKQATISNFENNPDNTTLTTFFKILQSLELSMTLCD

HipB = biological target: T2, HipB (Escherichia coli, UniProt P23873 1-88); test: as above; details: protein: recombinant; tags: His6 (Ni-NTA purified, pET15b); chain copies: 2; label: 5'-6-carboxyfluorescein on top strand; blunt
T2 sequence: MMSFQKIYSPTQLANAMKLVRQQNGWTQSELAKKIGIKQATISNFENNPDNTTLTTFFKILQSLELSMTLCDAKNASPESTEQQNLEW

HipB(W88A) = biological target: T3, HipB(W88A) (Escherichia coli, UniProt P23873 1-88, W88A); test: as above; details: protein: recombinant; tags: His6 (Ni-NTA purified); chain copies: 2; label: 5'-6-carboxyfluorescein on top strand; blunt
T3 sequence: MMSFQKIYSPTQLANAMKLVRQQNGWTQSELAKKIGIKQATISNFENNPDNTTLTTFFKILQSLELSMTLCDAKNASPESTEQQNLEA

HipA;HipB = biological target: T4, HipA;HipB (Escherichia coli;Escherichia coli, UniProt P23874;P23873 1-440;1-88, |); test: fluorescence polarization; HipA titrated into DNA saturated with 50 nM HipB; Kd is formally HipA for DNA-bound HipB; 20 mM Tris-HCl pH 7.5, 100 mM NaCl, 5% glycerol, 10 C, 1 nM labeled DNA; details: protein: recombinant;recombinant; tags: His6 (Ni-NTA purified, pET28a);His6 (Ni-NTA purified, pET15b); chain copies: 2;4; label: 5'-6-carboxyfluorescein on top strand; blunt
T4 sequence 1: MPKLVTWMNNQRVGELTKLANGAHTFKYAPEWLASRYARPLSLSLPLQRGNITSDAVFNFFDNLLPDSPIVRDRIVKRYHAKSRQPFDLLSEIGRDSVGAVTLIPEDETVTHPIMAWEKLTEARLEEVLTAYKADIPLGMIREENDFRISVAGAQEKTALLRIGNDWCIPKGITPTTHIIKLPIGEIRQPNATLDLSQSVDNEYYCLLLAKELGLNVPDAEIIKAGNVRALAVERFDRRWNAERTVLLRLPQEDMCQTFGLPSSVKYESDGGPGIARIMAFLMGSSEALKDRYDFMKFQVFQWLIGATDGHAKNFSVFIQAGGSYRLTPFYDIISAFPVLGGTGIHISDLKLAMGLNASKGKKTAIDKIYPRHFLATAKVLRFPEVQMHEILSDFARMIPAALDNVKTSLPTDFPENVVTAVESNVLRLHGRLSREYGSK
T4 sequence 2: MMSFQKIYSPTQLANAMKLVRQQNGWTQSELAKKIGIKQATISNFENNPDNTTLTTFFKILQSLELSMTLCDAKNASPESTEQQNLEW

[2] = biological target: B1; test: fluorescence polarisation; HipA titrated into 50 nM HipB (or HipB(W88A), HipB72) pre-incubated 2 min with 1 nM 5'-6-carboxyfluorescein-labelled hipBA O1O2 DNA; 20 mM Tris-HCl pH 7.5, 100 mM NaCl, 5% glycerol; 10 °C; the affinity is formally between HipA and HipB bound to the DNA; details: both partners purified
[3] = biological target: B1; test: as above; details: both partners purified; remark: listed apart in the source

B1
half-life of His6-HipB (0.48 µM) in the in vitro degradation assay with His6-Lon (0.6 µM) when purified His6-HipA (0.48 µM) is added, against lysozyme as control protein [1]: > 3.33 h

B2: hipBA O1O2 operator (dsDNA)
DNA 1: TTATCCGCTTAAGGGGATATTATAAGTTTTATCCTTTAGTGAGGATAA
DNA 2: TTATCCTCACTAAAGGATAAAACTTATAATATCCCCTTAAGCGGATAA
Kd (HipB72): 0.4 ± 0.1 nM
Kd (HipB): 0.6 ± 0.1 nM
Kd (HipB(W88A)): 0.9 ± 0.4 nM
Kd (HipA;HipB): 1000 ± 600 nM

B3
Kd [2]: 1000 ± 600 nM

B4: HipB(W88A) (natural protein, E. coli, UniProt P23873 1-88, looked up)
chain: MMSFQKIYSPTQLANAMKLVRQQNGWTQSELAKKIGIKQATISNFENNPDNTTLTTFFKILQSLELSMTLCDAKNASPESTEQQNLEA
notes: HipB of Escherichia coli with the C-terminal tryptophan 88 changed to alanine, made by site-directed mutagenesis in pET15b-hipB; Strain KLE911; also called HipB(W88A) protein; pET15b-hipB w88a; source: E. coli BL21(DE3)pLysS, purified (Ni-NTA)
Kd [2]: 1200 ± 300 nM

B5: HipB72 (C-terminal truncation of HipB lacking the last 16 residues) (domain or fragment, E. coli, UniProt P23873 1-72, looked up)
chain: MMSFQKIYSPTQLANAMKLVRQQNGWTQSELAKKIGIKQATISNFENNPDNTTLTTFFKILQSLELSMTLCD
notes: Strain KLE912; also called HipB72 C-terminal truncation protein; pET15b-hipB72; source: E. coli BL21(DE3)pLysS, purified (Ni-NTA)
binding result [3]: binds
